Assay results as given in patent US20100047230A1 (HELLENIC PASTEUR INSTITUTE, published 2010).

Legend:
Assay in all cases: ELISA on coated antigen
[1] = target: T1, human serum albumin (human, UniProt P02768 25-609)
T1 construct: Irrelevant antigen control, produced in P. pastoris; also called HSA

[2] = target: T2, alpha1-ECD of human AChR (human, UniProt P02708 21-230, limits assumed)
T2 construct: extracellular domain; Irrelevant antigen control; also called α1-ECD; α1-AChR

[3] = target: T3, bovine serum albumin (bovine, UniProt P02769 25-607)
T3 construct: Irrelevant antigen control; also called BSA
T3 sequence (P02769 25-607 limits assumed): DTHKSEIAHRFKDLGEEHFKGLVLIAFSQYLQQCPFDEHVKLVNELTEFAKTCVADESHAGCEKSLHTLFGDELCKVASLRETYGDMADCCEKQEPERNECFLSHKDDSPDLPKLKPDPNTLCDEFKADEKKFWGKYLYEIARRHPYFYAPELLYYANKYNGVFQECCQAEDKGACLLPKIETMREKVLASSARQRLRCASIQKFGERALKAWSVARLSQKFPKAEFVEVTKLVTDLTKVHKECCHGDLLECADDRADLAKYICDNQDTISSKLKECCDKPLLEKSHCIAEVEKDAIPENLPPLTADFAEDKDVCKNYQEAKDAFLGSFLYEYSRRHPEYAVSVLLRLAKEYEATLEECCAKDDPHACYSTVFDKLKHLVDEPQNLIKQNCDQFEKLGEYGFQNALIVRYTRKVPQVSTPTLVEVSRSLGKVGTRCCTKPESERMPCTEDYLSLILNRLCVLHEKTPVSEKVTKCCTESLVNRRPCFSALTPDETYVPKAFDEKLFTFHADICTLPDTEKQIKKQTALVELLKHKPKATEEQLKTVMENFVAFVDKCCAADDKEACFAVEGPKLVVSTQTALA

T2 sequence (P02708 21-230 limits assumed): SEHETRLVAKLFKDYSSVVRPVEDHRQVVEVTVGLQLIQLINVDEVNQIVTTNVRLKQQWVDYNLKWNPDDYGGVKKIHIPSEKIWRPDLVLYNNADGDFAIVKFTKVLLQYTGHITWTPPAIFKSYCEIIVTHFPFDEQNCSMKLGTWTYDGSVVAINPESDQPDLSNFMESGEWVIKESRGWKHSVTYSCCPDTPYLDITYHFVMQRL

B1: Fab63 (Fab, V domains shown)
VH: EVQLLEWGPGLVKPSGTLSLTCAVSGGSIRDSNWWGWVRQPPGKGLEWIGEIYHSGTTNYNPSLKSRVTISVDKSKNQFSLNLSSVTAADTAVYYCAREDCSYGSCYFDYWGQGTLVTVSS
VL: ELTLTQSPSSLSASLGDRVTIRCRASQSISAALNWYQQKPGKAPKLLIHDVSTLQSGVPARFSGGGSETDFTLTISSLQPEDFATYYCQQSYRVPLTFGGGTRLEIK
notes: Fully human soluble Fab made in E. coli from pComb3H; Heavy chain is an Fd of the gamma1 isotype (VH-CH1), light chain is kappa (VL of the K subgroup, with Ckappa); also called human Fab 63; clone 63
B1: no binding (tested: antigen coated at 10 µg/ml) [1]; no binding (tested: antigen coated at 10 µg/ml) [2]; no binding (tested: antigen coated at 10 µg/ml) [3].
